These are literature values, as cited in paper PMC9357288.

For this data set, the target named is Hck SH3 (Homo sapiens) (UniProt P08631).
Chain of UniProt P08631 (P08631 75-141): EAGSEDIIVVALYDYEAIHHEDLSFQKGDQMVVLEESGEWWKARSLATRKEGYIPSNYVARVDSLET

Turning to Nef (from UniProt P04324), the Kd was 250 nM.

The term Kd denotes a measure of binding affinity in units of concentration.
